# According to US20250011468A1:
# Target: human plasma-derived FIXa (Haematologic Technologies Inc) (human) (UniProt P00740)
# Assay: cell-based or functional assay
# human plasma-derived FIXa (Haematologic Technologies Inc) (human), sequence (P00740 47-191, chain 1 of 2): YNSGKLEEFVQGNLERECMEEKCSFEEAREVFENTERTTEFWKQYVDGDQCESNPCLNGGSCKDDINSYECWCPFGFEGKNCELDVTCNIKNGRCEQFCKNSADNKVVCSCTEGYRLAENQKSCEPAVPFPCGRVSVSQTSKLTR
# human plasma-derived FIXa (Haematologic Technologies Inc) (human), sequence (P00740 227-461, chain 2 of 2): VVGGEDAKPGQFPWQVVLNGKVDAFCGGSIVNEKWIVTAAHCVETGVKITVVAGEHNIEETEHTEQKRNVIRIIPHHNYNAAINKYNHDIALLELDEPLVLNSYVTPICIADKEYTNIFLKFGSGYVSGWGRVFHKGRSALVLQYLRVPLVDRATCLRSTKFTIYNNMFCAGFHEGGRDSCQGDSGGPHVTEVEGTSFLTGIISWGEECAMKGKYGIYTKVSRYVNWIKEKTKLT
substance,measurement,value
ACE910 (bispecific antibody),"Maximum stimulation (fold), at 15300 nM BiAb",808 fold
